Data taken from patent publication US11667697.
Where a chain is given by its changes, count along the chain named.

Tests used:
[1] = target: CPXV ortholog of D8 (cowpox virus); experiment: lysate ELISA
[2] = target: MPXV ortholog of D8 (monkeypox virus); experiment: lysate ELISA
[3] = target: CPXV ortholog of D8 (cowpox virus); experiment: cell-based or functional assay
[4] = target: CPXV ortholog of A27 (cowpox virus); experiment: lysate ELISA
[5] = target: MPXV ortholog of the A27 VACV protein (monkeypox virus); experiment: lysate ELISA
[6] = target: MPXV ortholog of the A27 VACV protein (monkeypox virus); experiment: purified antigen ELISA
[7] = target: VARV ortholog of A27 (variola virus); experiment: purified antigen ELISA
[8] = target: MPXV ortholog of the A27 VACV protein (monkeypox virus); experiment: cell-based or functional assay
[9] = target: MPXV ortholog of A33 (monkeypox virus); experiment: lysate ELISA
[10] = target: MPXV ortholog of A33 (monkeypox virus); experiment: cell-based or functional assay
[11] = target: CPXV ortholog of L1 (cowpox virus); experiment: lysate ELISA
[12] = target: VARV ortholog of L1 (variola virus); experiment: purified antigen ELISA
[13] = target: CPXV ortholog of L1 (cowpox virus); experiment: cell-based or functional assay
[14] = target: MPXV ortholog of L1 (monkeypox virus); experiment: cell-based or functional assay

B1: VACV-304 (antibody, V domains shown)
VH: EVQLVESGGGLVQPGGSLRLSCVVSGFTFSNYWMSWVRQAPGKGLEWVANIKQDGSKKYYVDSVTGRFTISRDNAKNSLYLQMNSLRAEDTAVYYCATLNLELAVDAISEALKWGQGTLVTVSS
VL: SYELTQPPSVSVSPGQTARITCSGDALPKQFAYWYQQKPGQAPVVMIYKDSERPSGIPERFSGSSSGTTVTLTISGVQAEDEADYYCQSVDNSGTYEVFGGGTQLTVL
EC50 [1]: 0.05 µg/mL | EC50 [2]: 0.1 µg/mL | PRNT Emax, CPXV MV+C' [3]: 79% | PRNT IC50, CPXV MV+C' [3]: 0.1 µg/mL

B2: VACV-154 (antibody, V domains shown)
VH: EVQLLESGGGLVQPGESLRLSCAASGFTLRNYAMSWVRQTPGKGLEWVSAISGSGGSTYYADSVKGRFTISRDTSKNTLYVQMNSLRAEDTAVYYCAKIRLDSSGYSGAFDIWGQGTRVTVSS
VL: SYELTQPPSVSVSPGQTARITCSGDALPKQYASWYQQKPGQAPVLVIYKDSERPSGIPERFSGSSSGTTVTLTISGVQAEDEADYYCQSADSSGTYPVVFGGGTQLTVL
EC50 [4]: 0.02 µg/mL | EC50 [5]: 0.02 µg/mL | EC50 [6]: 0.06 µg/mL | EC50 [7]: 0.3 µg/mL | PRNT Emax, MPXV MV [8]: 66% | PRNT Emax, MPXV MV+C' [8]: 69% | PRNT IC50, MPXV MV [8]: 15 µg/mL | PRNT IC50, MPXV MV+C' [8]: 14 µg/mL

B3: VACV-300 (antibody, V domains shown)
V domain 1: QVQLVQSGAEVKKPGSSVKVSCKASGGTFSSYAISWVRQAPGQGLEWMGGIIPIFGTANYAQKFQGRVTITADESTGTAYMELTSLRSEDTAIYYCARASEQWLASINWFDPWGQGTLVTVSS
V domain 2: QSALTQPASVSGSPGQSITISCTGTSSDVGSYNLVSWYQQHPGKAPKLMIYEVSKRPSGVSNRFSASKSGNTASLTISGLQAEDEADYYCCSYAGSSTLVFGGGTQVTVL
EC50 [4]: 0.06 µg/mL | EC50 [5]: > 0.68 µg/mL | EC50 [6]: 0.14 µg/mL | EC50 [7]: 0.79 µg/mL

B4: MPXV-39 (antibody, V domains shown)
VH: QVQLQQWGAGLLKPSETLSLTCAIYGGSLSGQYWSWIRQPPGRGLEWIGEIHHKGRTNYNPSLKSRVTISIDTSQRQFSLRLTSVSAADTAVYYCASGNYRLGQGTLVTF
VL: DVVLTQSPLTLPVTLGQPASISCRSSQSLVYSDGDTYLNWFQQRPGQAPRRLIYKVSKRDFGVPDRFSGSGSGTDFTLRISRVEAEDVGVYYCMQGTHWPRTFGQGTQVDIK
EC50 [9]: > 47 µg/mL | PRNT Emax, MPXV EV+C' [10]: 56% | PRNT IC50, MPXV EV+C' [10]: 100 µg/mL

B5: MPXV-83 (antibody, V domains shown)
VH: QVQLVESGGGVVQPGRSLRLSCAASGFTFSSYSMHWVRQAPGKGLEWVAVISFDGRSNYYADSVRGRFTISRDNSKKTMYLQMNSLRLADTAVYYCARGGIGAPDPRNGLEVWGRGAPVTLSS
VL: DIQMIQSPSSLSASVGDRVTISCQATQDISNSVNWYQQKPGKAPKLLIYDASTLETGVPSRFSGGGSGTHFTFTISSLQPEDIATYYCQQFHSLPPTFGQGPKGISK
EC50 [11]: 0.03 µg/mL | EC50 [12]: 0.065 µg/mL | PRNT Emax, CPXV MV [13]: 69% | PRNT Emax, CPXV MV+C' [13]: 78% | PRNT IC50, CPXV MV [13]: 0.2 µg/mL | PRNT IC50, CPXV MV+C' [13]: 0.1 µg/mL | PRNT Emax, MPXV MV+C' [14]: 67% | PRNT IC50, MPXV MV+C' [14]: 12.5 µg/mL

B6: VACV-33 (antibody, V domains shown)
VH: QLQLQESGPGLVKPSETLSLTCTVSGGSISSGGYYWGWIRQPPGKGLEWIASIYYSGSTYYNPSLKSRVTISVDTSKTQFSLKLSSVTAADTAVYYCARQSSSTGGFHYWGQGTLVTVSS
VL: QSVLTQPPSVSGAPGQRVTISCTGSSSNIGAGYDVHWYQHLPGTAPKLLIYGNSNRPSGVPDRFSGSKSGTSASLAITGLQAEDEANYYCQSYDSSLSGREVFGGGTQLTVL
EC50 [11]: 0.06 µg/mL | EC50 [12]: 0.02 µg/mL | PRNT Emax, CPXV MV [13]: 74% | PRNT Emax, CPXV MV+C' [13]: 75% | PRNT IC50, CPXV MV [13]: 0.5 µg/mL | PRNT IC50, CPXV MV+C' [13]: 0.2 µg/mL | PRNT Emax, MPXV MV [14]: 50% | PRNT IC50, MPXV MV [14]: 70 µg/mL

B7: VACV-8 (antibody, V domains shown)
VH: QVQLQQWGAGLLKPSETLSLTCAGYGGSFSGYFWSWIRQPPGKGLEWIGEINHSGSTDYNPSLKSRVTISLDTSKTQFSLKLSSVTAADTAVYYCARVMTGITNYYYYYGMDVWGQGTTVTF
VL: DIQLTQSPSFLSASVGDRVTITCRASQDISSYLAWYQQKPGKAPKLLIYAASTLQSGVPSRFSGSESGTEFTLTISSLQPENFATYYCQHLNSYPRGYTFGQGTKVDIK
EC50 [1]: 0.1 µg/mL | EC50 [2]: 0.06 µg/mL | PRNT Emax, CPXV MV+C' [3]: 58% | PRNT IC50, CPXV MV+C' [3]: 2 µg/mL

B8: VACV-117 (antibody, V domains shown)
VH: QVQLVQSGAEVKKPGASVKVSCKASGYTFTSYDINWVRQATGQGLEWLGWMNPNSGNTKSAQKVKGRVTMTRDTSISTAYMELSSLRSEDTAVYYCARTPFDDIGYYYWGQGTLVTVS
VL: DIVMTQSPLSLSVTPGEPASISCRSSQSLLHSNGYNYLDWYLQKPGQSPQLLIYLGSNRASGVPDRFIGSGSGTDFTLKISIVEAEDVGVYYCMQALQTPGAFGPGTKVDIK
EC50 [1]: 0.01 µg/mL | EC50 [2]: > 26 µg/mL

B9: VACV-303 (antibody, V domains shown)
VH: EVQLLESGGGLVQPGGSLRLSCAASGFTFSSYAMSWVRQAPGKGLEWVSAISGTGGNTYYADSVKGRFTISRDKSKNTLYLQMHSLRAEDTAVYYCATSLIWWLQSDYWGQGTLVTVSS
VL: DIQMTQSPSSLSASVGDRVTITCRASQSIASYLIWYQQKPGNAPKLLIYAASSLQSGVPSRFSGSGSGTDFTLTISSLQPEDFATYYCQQSYSTPQTFGQGTKVDIK
EC50 [4]: 0.004 µg/mL | EC50 [5]: 0.004 µg/mL | EC50 [6]: 0.02 µg/mL | EC50 [7]: 0.16 µg/mL | PRNT Emax, MPXV MV [8]: 51% | PRNT Emax, MPXV MV+C' [8]: 64% | PRNT IC50, MPXV MV [8]: 25 µg/mL | PRNT IC50, MPXV MV+C' [8]: 15 µg/mL

B10: MPXV-27 (antibody, V domains shown)
VH: QVQLQQWGAGLLKPSETLSLTCDVYGGSFSGYYWSWIRQPPGKGLEWIGEINHSGSTTYTPSLRSRVTISVDTSKNQFSLKLSSVTAADTAVYYCARVLSGWLPFPNYYYYMDVWGKGTTVT
VL: DIQMTQSPSSLPASVGDRVTITCRASQDIRNNLGWYQQKPGKAPERLIYGTSNLQSGVPSRFSGSGSGTEFTLTISSLQPEDFATYYCLQHNSYPPTFGRGTKVEIK
EC50 [1]: 0.02 µg/mL | EC50 [2]: 0.02 µg/mL | PRNT Emax, CPXV MV+C' [3]: 75% | PRNT IC50, CPXV MV+C' [3]: 0.08 µg/mL

B11: VACV-128 (antibody, V domains shown)
VH: EVQLVQSGAEVKKPGATVKISCKVSGYTFTDYYMHWVQQAPGKGLKWMGLLDPLDGETIYSEKFQGKVTITADTSTDTAYMELSSLRSEDTAVYYCARELTGYLNYWGQGTLVTVSS
VL: DIQMTQSPSSLSASVGDRVTITCRASPGICNYLAWYQHKPGKVPKLLIYAASTLQSGVPSRFTGVGSGTNFTLTINNLPPENVATYYCQKYNSAPHTFGQGTKVDIK
EC50 [1]: 0.25 µg/mL | PRNT Emax, CPXV MV+C' [3]: 71% | PRNT IC50, CPXV MV+C' [3]: 0.3 µg/mL

B12: MPXV-61 (antibody, V domains shown)
V domain 1: QVQLVQSGAEVKKPGSSVKVSCKASGETFSRYAFSWVRLAPGQGLEWLGRIIPFIDIPNYAQKFQGRVTITADKSTSTAYMELSSLRSEDTAVYYCASSLPSTYYFGSGNYPWGNWLDPWGQGTLVTVSS
V domain 2: QSVVTQPPSVSAAPGQNVTISCSGSSSNIGNNYVSWYHQLPGTAPKLLIYDNDKRPSGIPDRFSGSKSGTSATLGITGLQTGDEADYYCGTWDSSLSEVVFGGGTQVTVL
EC50 [1]: 0.009 µg/mL | EC50 [2]: 0.004 µg/mL

B13: VACV-66 (antibody, V domains shown)
VH: QLQLQESGPGLVKPSETLSLTCTVSGDSISSNNYYWGWIRQPPGKGLEWIGSIYYSGSTYYNPSLKSRVTISVDTSKNQFSLKLSSVTAADTAVYYCARHRRVLLWFGEFQLWGQGTLVTVSS
VL: QSALTQPPSVSGAPGQRVTISCTGSSSNIGAGYDVHWYQQLPGTAPKLLIYGNINRPSGVPDRFSGSKSGTSASLAITGLQAEDEADYYCQSYDSSLSGALFGGGTQLTVL
EC50 [2]: > 0.3 µg/mL

B14: VACV-159 (antibody, V domains shown)
VH: QLQLQESGPGLVKPSETLSLTCTVSGGSISSSSYYWGWIRQPPGKGLEWIGSIYYRGSTYYNPSLKSRITISVDTSKNQFSLKLRSVTAADTAVYYCARHLRVLLWFGELLEWGQGTTVTVSS
VL: B13 VL with G32D, I54S, Y93H, A100Y, L101V, G104T, Q107K, L108V
EC50 [1]: > 28 µg/mL | EC50 [2]: > 14 µg/mL

B15: MPXV-96 (antibody, V domains shown)
VH: QVQLQQWGAGLLISSETLSLTCGVYGGSFSGYYWTWIRQPPGKGLEWIGEINYVGSTNYNPSLKSRVTMSVDTSKNHFSLSLSSVTAADTAVYYCARGLRGNSVCFDWGPGTLV
VL: ELVMTQSPATLSVSPGERASLSCRASQSVSSNLAWYQQKPGQAPRLLIYGASTRATGLPARFSGSGSGTEFTLTISSLQSEDFAIYYCQQYNNWPRTFGQGTKVDI
EC50 [1]: 0.003 µg/mL | EC50 [2]: 0.001 µg/mL

B16: VACV-136 (antibody, V domains shown)
V domain 1: QVTLKESGPVLVNPTETLTLTCTVSGFSLSNARMRVSWIRQPPGKALEWLAHIFSNDEKSYSTSLKSRLTISKDTSKSQVVLTMTNMDPVDTASYYCARMRGEYNSYYFDSWGQGTLVTVS
V domain 2: SYELTQPPSVSVSPGQTARITCSGDALPNQYAYWYQQKPGQAPVLVIYKDSERPSGIPERFSGSSSGTTVTLTISGVQAEDEADYYCQSADSSGTSVVFGGGTQVTV
EC50 [1]: 0.05 µg/mL | EC50 [2]: 0.04 µg/mL | PRNT Emax, CPXV MV+C' [3]: 75% | PRNT IC50, CPXV MV+C' [3]: 0.2 µg/mL

B17: MPXV-26 (antibody, V domains shown)
VH: QVQLVQSGGGLIQPGGSLRLSCVVSGFNVATNYMSWVRQAPGKGLEWVSVIYSGGSTYYADSVKGRFTISRDNSKNTVFLQMNSLRPEDTAAYYCAKGGGLGLDYWGQGTLVTVSS
VL: QSALTQPPSASGSPGQSVTITCTGSSSDVGGYNYVSWYQQHPGKAPKVVIYEVNKRPSGVPHRFSGSKSGNTASLTVSGLQAEDEADYYCSSYAGTETVAFGGGTKLTVL
EC50 [11]: 0.05 µg/mL | EC50 [12]: 0.02 µg/mL | PRNT Emax, CPXV MV [13]: 99% | PRNT Emax, CPXV MV+C' [13]: 93% | PRNT IC50, CPXV MV [13]: 0.07 µg/mL | PRNT IC50, CPXV MV+C' [13]: 0.2 µg/mL | PRNT Emax, MPXV MV [14]: 96% | PRNT Emax, MPXV MV+C' [14]: 97% | PRNT IC50, MPXV MV [14]: 3 µg/mL | PRNT IC50, MPXV MV+C' [14]: 6.2 µg/mL
